The source of these data is US9688719B2, “Glycogen synthase kinase-3 inhibitors” (Ramot at Tel-Aviv University Ltd., priority 2011, dated 2017).

In assay [1] the test system is CREB (serine 129) and N'IRS-1 (serine 332). Briefly: Phosphorylation of protein substrates in HEK-293 cells expressing GSK-3β WT or F93A. It counts as cell-based. As to conditions: forskolin or PMA treated, versus WT-GSK-3β, FIGS. 1E-H. How it is done:
The role of Phe93 in substrate binding by employing a cellular system and protein substrates (i.e., not peptides) was further explored. To this end, the WT-GSK-3β and F93A mutant were expressed in HEK-293 cells together with GSK-3 substrates CREB or N′IRS-1 (the N-terminal region of IRS-1). Because GSK-3 requires pre-phosphorylation of its substrates, the cells were treated with forskolin to enhance CREB phosphorylation via activation of cAMP dependent kinase (PKA), or with phorbol ester (PMA) to enhance N′IRS-1 phosphorylation via activation of protein kinase C (PKC).
The phosphorylation of CREB at serine 129, and N′IRS-1 at serine 332 (both GSK-3 phosphorylation sites) was then examined.
Thus, HEK293 cells were co-transfected with WT-GSK-3β or F93A plasmids together with construct coding for CREB. Cells were treated with forskolin (10 μM, 1 hour), and cell extracts were subjected to Western blot analysis using anti-phospho CREB (Ser 129/133) antibody, as presented in FIG. 1E. Expression levels of CREB and GSK-3 proteins are indicated. Results are means of three independent experiments ±SEM.
A similar assay was conducted using N′IRS-1 cDNA construct instead of CREB, and cells were treated with PMA (100 nM, 30 minutes). Expression levels of N′IRS-1 and GSK-3β are indicated. Results are means of three independent experiments ±SEM.

A further assay has as its system pIRS-1. Briefly: In vitro kinase assay of GSK-3β mutants with substrate pIRS-1. Type of assay: biochemical. As to conditions: mean ± SEM; WT set to 100%. How it is done:
(§1) HEK-293 cells were grown in Dulbecco's Modified Eagle's Medium (DMEM), supplemented with 10% fetal calf serum (FCS), 2 mM glutamine, 100 units/ml penicillin, and 100 μg/ml streptomycin. HEK-293 cells were transiently transfected with indicated constructs, using calcium phosphate method as described [Ilouz et al. (2006) supra]. Cells were lysed in ice-cold buffer G (20 mM Tris-HCl, pH 7.5, 10 mM β-glycerophosphate, 10% glycerol, 1 mM EGTA, 1 mM EDTA, 50 mM NaF, 5 mM sodium pyrophosphate, 0.5 mM orthovanadate, 1 mM benzamidine, 10 μg/ml leupeptin, 5 μg/ml aprotinin, 1 μg/ml pepstatin, and 0.5% Triton X100). Cell extracts were centrifuged for 30 minutes at 15,000×g. Supernatants were collected, and equal amounts of proteins were boiled with SDS sample buffer and subjected to gel electrophoresis (7.5-12% polyacrylamide gel), transferred to nitrocellulose membranes, and immunoblotted with indicated antibodies. For partial purification, cells were lysed in buffer H (20 mM Tris, pH 7.3, 1 mM EGTA, 1 mM EDTA, 1 mM orthovanadate, 25 μg/ml leupeptin, 25 μg/ml aprotinin, and 25 μg/ml pepstatin A, 500 nM microcystine LR, and 0.25% Triton X100). The lysates were centrifuged at 15,000×g. The resulting supernatants were passed through DE-52 (Whatman, Maidstone, England) mini-columns that were equilibrated with buffer H. GSK-3β proteins were eluted with the same buffer containing 0.02 M NaCl. Equal amounts of proteins were used for in vitro kinase assays.
(§2) The GSK-3β proteins (WT or mutants) were incubated with indicated substrate in a reaction mixture (50 mM Tris-HCl, pH 7.3, 10 mM magnesium acetate, and 0.01% β-mercaptoethanol) together with 100 μM ^32P[γ-ATP] (0.5 μCi/assay) for 15 minutes. Reactions were stopped by spotting on p81 paper (Whatman) washed with phosphoric acid, and counted for radioactivity as previously described [Ilouz et al. (2006) supra]. In assays from cells overexpressing GSK-3 proteins, the activity of the endogenous GSK-3 that was determined in cells transfected with the pCMV4 vector was subtracted from the activity values obtained for WT and mutants.
(§3) The GSK-3β mutants were partially purified by ion exchange chromatography, and their abilities to phosphorylate peptide substrates were tested in in vitro kinase assays. The substrates were: pIRS-1, p9CREB, and pGS-1, phosphorylated peptides derived from the insulin receptor substrate-1 (IRS-1), cAMP responsive element binding protein (CREB), and glycogen synthase, respectively.

Another assay deals with p9CREB. Briefly: In vitro kinase assay of GSK-3β mutants with substrate p9CREB. It counts as biochemical. As to conditions: mean ± SEM; WT set to 100%. On the procedure:
as §1, §2, §3

The subject of the next assay is pGS-1. As to the kind of experiment: In vitro kinase assay of GSK-3β mutants with substrate pGS-1. It counts as biochemical. The note with it: mean ± SEM; WT set to 100%. How it is done:
as §1, §2, §3

B1: F93A: GSK-3β mutant, F93 replaced by alanine (protein)
chain: MSGRPRTTSFAESCKPVQQPSAFGSMKVSRDKDGSKVTTVVATPGQGPDRPQEVSYTDTKVIGNGSFGVVYQAKLCDSGELVAIKKVLQDKRAKNRELQIMRKLDHCNIVRLRYFFYSSGEKKDEVYLNLVLDYVPETVYRVARHYSRAKQTLPVIYVKLYMYQLFRSLAYIHSFGICHRDIKPQNLLLDPDTAVLKLCDFGSAKQLVRGEPNVSYICSRYYRAPELIFGATDYTSSIDVWSAGCVLAELLLGQPIFPGDSGVDQLVEIIKVLGTPTREQIREMNPNYTEFKFPQIKAHPWTKDSSGTGHFTSGVRVFRPRTPPEAIALCSRLLEYTPTARLTPLEACAHSFFDELRDPNVKLPNGRDTPALFNFTTQELSSNPPLATILIPPHARIQAAASTPTNATAASDANTGDRGQTNNAASASASNST
modifications: GSK-3 beta, F93A mutant
notes: GSK-3β mutant, F93 replaced by alanine
Turning to B1, the “phosphorylation of CREB and N'IRS-1 in cells” value in assay [1] was “did not enhance the phosphorylation”. Also, the “Substrate phosphorylation (% of WT GSK-3β), pIRS-1” value in the assay on pIRS-1 is recorded as 42 ± 13 % of WTGSK-3β. Besides, in the assay with p9CREB, the “Substrate phosphorylation (% of WT GSK-3β), p9CREB” value is given as 46 ± 2 % of WTGSK-3β. For the same molecule, the “Substrate phosphorylation (% of WT GSK-3β), pGS-1” value in the assay with pGS-1 is 13 ± 7 % of WTGSK-3β.
